Data taken from patent US20120322725A1 (INDIANA UNIVERSITY RESEARCH AND TECHNOLOGY, published 2012).
“And” between values parts separate entries of the source, which are not always exact repeats. Equal entries are not always repeated. Where two headings read alike, the source gives them in different places. Square brackets hold non-standard residues; d marks the D form. Ends that are not written are not given here. * marks the point of attachment. MCA = alpha-methylhydrocinnamic acid (2-methyl-3-phenylpropanoic acid); PLA = 3-phenyllactic acid (2-hydroxy-3-phenylpropanoic acid); PhLac = O=C(O)[C@@H](O)Cc1ccccc1; Carboxymethyl = O=C(O)C*

Tests used:
glucagon receptor [1] = target: T1, glucagon receptor (UniProt P47871 26-477, limits assumed); experiment: receptor binding, method not described
T1 construct: whole, on cells; also called GR; Glucagon
T1 sequence (P47871 26-477 limits assumed): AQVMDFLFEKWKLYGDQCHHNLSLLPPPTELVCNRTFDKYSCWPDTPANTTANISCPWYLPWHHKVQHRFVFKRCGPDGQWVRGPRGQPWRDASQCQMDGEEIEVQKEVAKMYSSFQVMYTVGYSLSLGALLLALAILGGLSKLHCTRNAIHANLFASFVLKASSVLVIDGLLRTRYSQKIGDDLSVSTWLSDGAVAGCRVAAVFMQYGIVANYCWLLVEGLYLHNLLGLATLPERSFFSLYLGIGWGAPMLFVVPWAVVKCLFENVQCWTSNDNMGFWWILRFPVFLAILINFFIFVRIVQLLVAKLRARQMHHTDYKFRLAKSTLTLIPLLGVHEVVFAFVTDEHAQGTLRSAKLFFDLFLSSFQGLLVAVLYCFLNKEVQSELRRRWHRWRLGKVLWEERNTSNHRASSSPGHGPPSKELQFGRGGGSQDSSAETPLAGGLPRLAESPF

glucagon receptor [2] = target: T1, glucagon receptor; experiment: cell-based or functional assay
glucagon receptor [3] = target: T1, glucagon receptor; experiment: receptor binding, method not described; remark: listed apart in the source
glucagon receptor [4] = target: T1, glucagon receptor; experiment: cell-based or functional assay; remark: listed apart in the source
glucagon receptor [5] = target: T1, glucagon receptor; experiment: receptor binding, method not described; remark: listed apart in the source
glucagon receptor [6] = target: T1, glucagon receptor; experiment: cell-based or functional assay; remark: listed apart in the source
glucagon receptor [7] = target: T1, glucagon receptor; experiment: cell-based or functional assay; remark: listed apart in the source
glucagon receptor [8] = target: T1, glucagon receptor; experiment: receptor binding (named so for the same values in Table I), method not described

B1: [desHis^1, desPhe^6]Glucagon-NH2 (peptide)
peptide: SQGTTSDYSKYLDSRRAQDFVQWLMNT-NH2
notes: also called Cmpd
- IC50 (glucagon receptor [1]): 130 nM
- cAMP Induction EC50 (glucagon receptor [2]): 1180 nM

B2: [C5(1.2kDaPEG), E9]Glucagon(aa5-29)-NH2 (peptide)
peptide: C(PEG 1.2 kDa)FTSEYSKYLDSRRAQDFVQWLMNT-NH2
- IC50 (glucagon receptor [3]): 1080 nM
- IC50(nM) (cAMP, inhibit 0.2 mM Glucagon) (glucagon receptor [4]): 2280 nM

B3: 3.4kDaPEG-dimer[C5, E9]Glucagon(aa5-29)-NH2 (peptide)
peptide: C(PEG 3.4 kDa)FTSEYSKYLDSRRAQDFVQWLMNT-NH2
modifications: also: dimer: two chains joined by 3.4 kDa PEG at Cys5
- IC50 (glucagon receptor [3]): 435 nM
- IC50(nM) (cAMP, inhibit 0.2 mM Glucagon) (glucagon receptor [4]): 1340 nM

B4: [C5(5kDaPEG), E9]Glucagon(aa5-29)-NH2 (peptide)
peptide: C(PEG 5 kDa)FTSEYSKYLDSRRAQDFVQWLMNT-NH2
- IC50 (glucagon receptor [3]): 634 nM
- IC50(nM) (cAMP, inhibit 0.2 mM Glucagon) (glucagon receptor [4]): 1610 nM

B5: [hGlu^9]Glucagon(aa6-29)-NH2 (peptide)
peptide: FTSXYSKYLDSRRAQDFVQWLMNT
HELM: PEPTIDE1{F.T.S.[O=C(O)CCC[C@H](N[*:1])C(=O)[*:2]].Y.S.K.Y.L.D.S.R.R.A.Q.D.F.V.Q.W.L.M.N.T.[am]}$$$$V2.0; N-terminus assumed
SMILES: CSCC[C@H](NC(=O)[C@H](CC(C)C)NC(=O)[C@H](Cc1c[nH]c2ccccc12)NC(=O)[C@H](CCC(N)=O)NC(=O)[C@@H](NC(=O)[C@H](Cc1ccccc1)NC(=O)[C@H](CC(=O)O)NC(=O)[C@H](CCC(N)=O)NC(=O)[C@H](C)NC(=O)[C@H](CCCNC(=N)N)NC(=O)[C@H](CCCNC(=N)N)NC(=O)[C@H](CO)NC(=O)[C@H](CC(=O)O)NC(=O)[C@H](CC(C)C)NC(=O)[C@H](Cc1ccc(O)cc1)NC(=O)[C@H](CCCCN)NC(=O)[C@H](CO)NC(=O)[C@H](Cc1ccc(O)cc1)NC(=O)[C@H](CCCC(=O)O)NC(=O)[C@H](CO)NC(=O)[C@@H](NC(=O)[C@@H](N)Cc1ccccc1)[C@@H](C)O)C(C)C)C(=O)N[C@@H](CC(N)=O)C(=O)N[C@H](C(N)=O)[C@@H](C)O
notes: also called [hE^9]Glucagon(aa6-29)-NH2; peptide no
- IC50 (glucagon receptor [5]): 163 nM
- cAMP IC50 (glucagon receptor [6]): 472 nM
- cAMP pA2 (glucagon receptor [6]): 6.27
- cAMP (I/A)50 (glucagon receptor [7]): 2360
- cAMP pA2 (glucagon receptor [7]): 6.27
- IC50 (glucagon receptor [8]): 163 nM

B6: [C5(20kDaPEG), E9]Glucagon(aa5-29)-NH2 (peptide)
peptide: C(PEG 20 kDa)FTSEYSKYLDSRRAQDFVQWLMNT-NH2
- IC50 (glucagon receptor [3]): 331 nM
- IC50(nM) (cAMP, inhibit 0.2 mM Glucagon) (glucagon receptor [4]): 976 nM

B7: Glucagon(aa6-29)-NH2 (peptide)
peptide: FTSDYSKYLDSRRAQDFVQWLMNT-NH2
notes: also called peptide no
- IC50 (glucagon receptor [5]): 1670 nM
- cAMP IC50 (glucagon receptor [6]): 346 nM
- cAMP pA2 (glucagon receptor [6]): 6.94
- cAMP (I/A)50 (glucagon receptor [7]): 1730
- cAMP pA2 (glucagon receptor [7]): 6.94
- IC50 (glucagon receptor [8]): 1890 nM

B8: [(CSA-1)^9]Glucagon(aa6-29)-NH2 (peptide)
peptide: FTSC(Carboxymethyl)YSKYLDSRRAQDFVQWLMNT-NH2
modifications: N-terminus assumed
SMILES: CSCC[C@H](NC(=O)[C@H](CC(C)C)NC(=O)[C@H](Cc1c[nH]c2ccccc12)NC(=O)[C@H](CCC(N)=O)NC(=O)[C@@H](NC(=O)[C@H](Cc1ccccc1)NC(=O)[C@H](CC(=O)O)NC(=O)[C@H](CCC(N)=O)NC(=O)[C@H](C)NC(=O)[C@H](CCCNC(=N)N)NC(=O)[C@H](CCCNC(=N)N)NC(=O)[C@H](CO)NC(=O)[C@H](CC(=O)O)NC(=O)[C@H](CC(C)C)NC(=O)[C@H](Cc1ccc(O)cc1)NC(=O)[C@H](CCCCN)NC(=O)[C@H](CO)NC(=O)[C@H](Cc1ccc(O)cc1)NC(=O)[C@H](CSCC(=O)O)NC(=O)[C@H](CO)NC(=O)[C@@H](NC(=O)[C@@H](N)Cc1ccccc1)[C@@H](C)O)C(C)C)C(=O)N[C@@H](CC(N)=O)C(=O)N[C@H](C(N)=O)[C@@H](C)O
notes: also called [C^9(SCH2COOH)]Glucagon(aa6-29)-NH2; peptide no
- IC50 (glucagon receptor [5]): 107 nM
- cAMP IC50 (glucagon receptor [6]): 101 nM
- cAMP pA2 (glucagon receptor [6]): 6.68
- cAMP (I/A)50 (glucagon receptor [7]): 506
- cAMP pA2 (glucagon receptor [7]): 6.68
- IC50 (glucagon receptor [8]): 107 nM

B9: [(CSA-2)^9]Glucagon(aa6-29)-NH2 (peptide)
peptide: FTSCYSKYLDSRRAQDFVQWLMNT
HELM: PEPTIDE1{F.T.S.[O=C(O)CCSC[C@H](N[*:1])C(=O)[*:2]].Y.S.K.Y.L.D.S.R.R.A.Q.D.F.V.Q.W.L.M.N.T.[am]}$$$$V2.0; N-terminus assumed
SMILES: CSCC[C@H](NC(=O)[C@H](CC(C)C)NC(=O)[C@H](Cc1c[nH]c2ccccc12)NC(=O)[C@H](CCC(N)=O)NC(=O)[C@@H](NC(=O)[C@H](Cc1ccccc1)NC(=O)[C@H](CC(=O)O)NC(=O)[C@H](CCC(N)=O)NC(=O)[C@H](C)NC(=O)[C@H](CCCNC(=N)N)NC(=O)[C@H](CCCNC(=N)N)NC(=O)[C@H](CO)NC(=O)[C@H](CC(=O)O)NC(=O)[C@H](CC(C)C)NC(=O)[C@H](Cc1ccc(O)cc1)NC(=O)[C@H](CCCCN)NC(=O)[C@H](CO)NC(=O)[C@H](Cc1ccc(O)cc1)NC(=O)[C@H](CSCCC(=O)O)NC(=O)[C@H](CO)NC(=O)[C@@H](NC(=O)[C@@H](N)Cc1ccccc1)[C@@H](C)O)C(C)C)C(=O)N[C@@H](CC(N)=O)C(=O)N[C@H](C(N)=O)[C@@H](C)O
notes: also called [C^9(SCH2CH2COOH)]Glucagon(aa6-29)-NH2; peptide no
- IC50 (glucagon receptor [5]): 146 nM
- cAMP IC50 (glucagon receptor [6]): 116 nM
- cAMP pA2 (glucagon receptor [6]): 6.64
- cAMP (I/A)50 (glucagon receptor [7]): 580
- cAMP pA2 (glucagon receptor [7]): 6.64
- IC50 (glucagon receptor [8]): 146 nM

B10: [Lys^9]Glucagon(aa6-29)-NH2 (peptide)
peptide: FTSKYSKYLDSRRAQDFVQWLMNT-NH2
notes: also called [K^9]Glucagon(aa6-29)-NH2; peptide no
- IC50 (glucagon receptor [5]): 3240 nM
- cAMP IC50 (glucagon receptor [6]): 398 nM
- cAMP pA2 (glucagon receptor [6]): 6.58
- cAMP (I/A)50 (glucagon receptor [7]): 1990
- cAMP pA2 (glucagon receptor [7]): 6.58
- IC50 (glucagon receptor [8]): 5780 nM

B11: [desHis^1, Glu^9, Phe^25, Leu^27]Glucagon-NH2 (peptide)
peptide: SQGTFTSEYSKYLDSRRAQDFVQFLLNT-NH2
- IC50 (glucagon receptor [1]): 12.6 nM
- cAMP Induction EC50 (glucagon receptor [2]): 81 nM

B12: [desHis^1, Leu^4, Glu^9]Glucagon-NH2 (peptide)
peptide: SQLTFTSEYSKYLDSRRAQDFVQWLMNT-NH2
notes: also called Cmpd
- IC50 (glucagon receptor [1]): 36.9 nM
- cAMP Induction EC50 (glucagon receptor [2]): 318 nM
- cAMP Inhibition IC50 (glucagon receptor [2]): 102 nM

B13: [desHis^1, Leu^4, hCys^9(SO3^-), Phe^25, Leu^27]Glucagon-NH2 (peptide)
peptide: SQLTFTSXYSKYLDSRRAQDFVQFLLNT
HELM: PEPTIDE1{S.Q.L.T.F.T.S.[O=C([C@H](CCS(=O)(=O)O)N[*:1])[*:2]].Y.S.K.Y.L.D.S.R.R.A.Q.D.F.V.Q.F.L.L.N.T.[am]}$$$$V2.0; N-terminus assumed
SMILES: CC(C)C[C@H](NC(=O)[C@H](Cc1ccc(O)cc1)NC(=O)[C@H](CCCCN)NC(=O)[C@H](CO)NC(=O)[C@H](Cc1ccc(O)cc1)NC(=O)[C@H](CCS(=O)(=O)O)NC(=O)[C@H](CO)NC(=O)[C@@H](NC(=O)[C@H](Cc1ccccc1)NC(=O)[C@@H](NC(=O)[C@H](CC(C)C)NC(=O)[C@H](CCC(N)=O)NC(=O)[C@@H](N)CO)[C@@H](C)O)[C@@H](C)O)C(=O)N[C@@H](CC(=O)O)C(=O)N[C@@H](CO)C(=O)N[C@@H](CCCNC(=N)N)C(=O)N[C@@H](CCCNC(=N)N)C(=O)N[C@@H](C)C(=O)N[C@@H](CCC(N)=O)C(=O)N[C@@H](CC(=O)O)C(=O)N[C@@H](Cc1ccccc1)C(=O)N[C@H](C(=O)N[C@@H](CCC(N)=O)C(=O)N[C@@H](Cc1ccccc1)C(=O)N[C@@H](CC(C)C)C(=O)N[C@@H](CC(C)C)C(=O)N[C@@H](CC(N)=O)C(=O)N[C@H](C(N)=O)[C@@H](C)O)C(C)C
- cAMP Induction EC50 (glucagon receptor [2]): 1610 nM
- cAMP Inhibition IC50 (glucagon receptor [2]): 4460 nM

B14: [Leu^4, Glu^9]Glucagon(aa4-29)-NH2 (peptide)
peptide: LTFTSEYSKYLDSRRAQDFVQWLMNT-NH2
notes: also called peptide no
- IC50 (glucagon receptor [8]): 36.4 nM

B15: [MCA6, E9, C24(20kDaPEG)]Glucagon(aa6-29)-NH2 (peptide)
peptide: [MCA]TSEYSKYLDSRRAQDFVC(maleimido methoxyPEG 20 kDa)WLMNT-NH2
- IC50 (glucagon receptor [3]): 208 nM

B16: [PLA6, E9, C11(20kDaPEG)]Glucagon(aa6-29)-NH2 (peptide)
peptide: [PhLac]TSEYC(maleimido methoxyPEG 20 kDa)KYLDSRRAQDFVQWLMNT-NH2
- IC50 (glucagon receptor [3]): 776 nM
- IC50(nM) (cAMP, inhibit 0.2 mM Glucagon) (glucagon receptor [4]): 664 nM

B17: [PLA6, C8(20kDaPEG), E9]Glucagon(aa6-29)-NH2 (peptide)
peptide: [PhLac]TC(maleimido methoxyPEG 20 kDa)EYSKYLDSRRAQDFVQWLMNT-NH2
- IC50 (glucagon receptor [3]): 303 nM
- IC50(nM) (cAMP, inhibit 0.2 mM Glucagon) (glucagon receptor [4]): 236 nM and 92 nM

B18: [PLA6, E9, C24(20kDaPEG)]Glucagon(aa6-29)-NH2 (peptide)
peptide: [PhLac]TSEYSKYLDSRRAQDFVC(maleimido methoxyPEG 20 kDa)WLMNT-NH2
- IC50 (glucagon receptor [3]): 90 nM
- IC50(nM) (cAMP, inhibit 0.2 mM Glucagon) (glucagon receptor [4]): 126 nM

B19: [PLA6, C8(1.2kDaPEG), E9]Glucagon(aa6-29)-NH2 (peptide)
peptide: {PLA}-TC(PEG 1.2 kDa)EYSKYLDSRRAQDFVQWLMNT-NH2
- IC50 (glucagon receptor [3]): 220 nM

B20: [PLA6, E9,C24(1.2 kDaPEG)]Glucagon(aa6-29)-NH2 (peptide)
peptide: {PLA}-TSEYSKYLDSRRAQDFVC(PEG 1.2 kDa)WLMNT-NH2
- IC50 (glucagon receptor [3]): 4.7 nM
- IC50(nM) (cAMP, inhibit 0.2 mM Glucagon) (glucagon receptor [4]): 18 nM

B21: [PLA6, C8(5kDaPEG), E9]Glucagon(aa6-29)-NH2 (peptide)
peptide: {PLA}-TC(PEG 5 kDa)EYSKYLDSRRAQDFVQWLMNT-NH2
- IC50 (glucagon receptor [3]): 948 nM
- IC50(nM) (cAMP, inhibit 0.2 mM Glucagon) (glucagon receptor [4]): 216 nM
